Assay results as given in patent publication US10525113B2, “Micellar polypeptide vaccine having pegylated phospholipids as carrier” (INSTITUTE OF BIOPHYSICS, CHINESE ACADEMY OF SCIENCES, priority 2014, dated 2020).
Ends that are not written are not given here. * marks the point of attachment. Palmitoyl = CCCCCCCCCCCCCCCC(=O)*

Key:
[1] = Entrapment efficiency of fatty-acidified antigenic polypeptide in PEG-PE micelle (centrifugation, rhodamine fluorescence); assay type: physicochemical; conditions: lipid:MPLA (w/w) 100:1
Protocol: According to the proportions shown in Table 2 and Table 3, the micelles containing different proportions of polypeptides are prepared. The preparation process is carried out in the same manner as described in Embodiment 1. The prepared micelle vaccine solutions of different proportions are subjected to 14,000 g high-speed centrifugation for 30 minutes. The undissolved free antigenic polypeptide is separated from the antigen entrapped by micelle in the solution.
The maximal excitation wavelength of the rhodamine fluorescence labeled by the polypeptide is 535 nm and the maximum emission wavelength is 590 nm.
The antigen content in the solution is detected by fluorescence spectrophotometry, and then the effective entrapment efficiency of antigenic polypeptide is calculated according to the formula (see Table 2. Table 3, line 3). It can be seen that, in the condition where the mass ratio of PEG-PE to the fatty-acid-modified polypeptide is greater than or equal to 10:1, the entrapment efficiency is about 100%.

[2] = water / aqueous solution
Protocol: Thus, free antigenic polypeptide can be separated from the antigenic polypeptide loaded on micelle, and then the entrapment efficiency of antigenic polypeptide is calculated based on the change in the content of the antigenic polypeptide loaded on micelle in the solution. The entrapment efficiency=the amount of antigen to be entrapped/total antigen ×100%.

[3] = 100 μL subcutaneous, shoulder; 0 hour to 7 days; FIG. 3
Protocol: 20 μL of 10 mg/mL DMSO stock solution of rhodamine-labeled, fatty-acidified E7 polypeptide (sequence: palmitic acid-[sequence], rhodamine labeled in amino acid K, synthesized in Jill Biochemical Co., Ltd.) is added to 1 mL of sterile water to obtain a fluorescent polypeptide solution with the concentration of 0.2 mg/mL.
10 mg of PEG-PE powder is weighed and dissolved in 1 mL of chloroform in a test tube, and 0.2 mL of solution of rhodamine-labeled, fatty-acidified E7 polypeptide in methanol (1 mg/mL) is taken such that in micelle. The solution is gently shaken according to the method in Embodiment 1 to mix evenly. Nitrogen is used to blow and dry the solution to form a uniform thin membrane. The residual organic solvent and moisture are completely removed in a vacuum drier overnight. 1 mL of sterile normal saline is added, and 53° C. water bath incubation is conducted for 30 minutes for hydrated lipid membrane. A light purple uniform transparent solution is obtained, in which the concentration of fluorescent polypeptide is 0.2 mg/mL. […]
7 mg of DPPC and 3 mg of cholesterol are dissolved in chloroform separately and then mixed in a test tube, and 0.2 mL of solution of rhodamine-labeled, fatty-acidified E7 polypeptide in methanol (1 mg/mL) is taken. […] The concentration of fluorescence polypeptide is 0.2 mg/mL. […]

Substance	entrapment efficiency (%) ([1]; lipid:peptide (w/w) 1:1)	entrapment efficiency (%) ([1]; lipid:peptide (w/w) 2:1)	entrapment efficiency (%) ([1]; lipid:peptide (w/w) 5:1)	entrapment efficiency (%) ([1]; lipid:peptide (w/w) 10:1)	entrapment efficiency (%) ([1]; lipid:peptide (w/w) 20:1)	entrapment efficiency (%) ([1]; lipid:peptide (w/w) 50:1)	solubility / state in water [2]	subcutaneous diffusion / localized retention at injection site [3]
palmitic acid-GQAEPDRAHYNIVTFCCKCD (Palmitoyl-GQAEPDRAHYNIVTFCCKCD; cysteine pairing not given here) [E7 Antigenic Polypeptide]	25.48	67.76	97.99	100.00	100.00	100.00	present in an aggregated form in aqueous solution	subcutaneous localized retention at the injection site is evident
palmitic acid-EQLESIINFEKLTEWKD (Palmitoyl-EQLESIINFEKLTEWKD) [OT-1 Antigenic Polypeptide]	27.91	40.10	91.76	100.00	100.00	100.00		
